# Data taken from US20130310305A1.
# What was measured:
# [1] = molecular target: plasminogen (purified; Molecular Innovations in the plasmin activity reactions); experiment: cell-based or functional assay
# [2] = molecular target: mouse plasminogen (endogenous, in descending aorta protein of LDLR-/- ApoB48-deficient mice) (mouse) (UniProt P20918); experiment: co-immunoprecipitation from pooled mouse descending aorta protein, densitometry of the western blot
# UniProt P20918, sequence (P20918 20-812 limits assumed): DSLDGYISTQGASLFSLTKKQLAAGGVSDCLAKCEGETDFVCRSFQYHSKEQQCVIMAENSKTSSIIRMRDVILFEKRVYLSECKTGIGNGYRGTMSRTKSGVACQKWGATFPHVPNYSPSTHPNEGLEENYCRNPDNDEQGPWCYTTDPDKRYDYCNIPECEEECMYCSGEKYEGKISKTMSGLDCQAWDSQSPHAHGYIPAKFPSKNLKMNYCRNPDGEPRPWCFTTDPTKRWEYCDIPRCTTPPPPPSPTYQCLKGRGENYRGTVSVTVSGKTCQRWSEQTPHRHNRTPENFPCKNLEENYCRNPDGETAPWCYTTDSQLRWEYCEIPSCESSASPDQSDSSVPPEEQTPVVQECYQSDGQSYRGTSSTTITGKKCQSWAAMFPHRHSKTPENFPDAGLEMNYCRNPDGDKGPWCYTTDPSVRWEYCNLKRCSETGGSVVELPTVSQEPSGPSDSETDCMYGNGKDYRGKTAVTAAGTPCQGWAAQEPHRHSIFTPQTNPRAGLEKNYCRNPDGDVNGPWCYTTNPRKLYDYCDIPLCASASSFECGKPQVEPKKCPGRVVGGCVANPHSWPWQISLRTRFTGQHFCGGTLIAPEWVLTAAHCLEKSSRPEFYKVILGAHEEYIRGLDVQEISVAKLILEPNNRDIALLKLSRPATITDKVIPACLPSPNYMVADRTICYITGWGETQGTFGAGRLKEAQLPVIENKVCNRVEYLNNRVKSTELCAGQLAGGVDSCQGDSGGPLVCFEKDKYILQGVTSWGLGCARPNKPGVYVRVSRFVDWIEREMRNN
Substance,plasmin activity (chromozym assay); 50 nM PAI-1 pre-bound to plasminogen 1 h at 37 C before tPA was added (late) [1],fold more plasminogen complexed with PAI-1 (rPAI-123-treated against saline-treated mice) [2]
glycosylated human PAI-1 (Molecular Innovations) (from UniProt P05121 24-402),0.00138 U/ml,
"mouse PAI-1 (endogenous, in descending aorta protein of LDLR-/- ApoB48-deficient mice) (from UniProt P22777 23-402)",,1.6 fold
